Reference: patent US20080207488A1, “Method for Detecting Peptides Comprising a Cross-B Structure” (priority 2005, published 2008)

Assays:
U937 monocytes = test: TNFα RNA upregulation in U937 monocytes (RT-PCR); assay type: cell-based, human; details: 1 h stimulation; 100 μg ml^−1 amyloid endostatin, 260 μg ml^−1 Hb-AGE; LPS 1 μg ml^−1; normalized to 18S
Description: U937 monocytes were cultured in six-wells plates. Cells were stimulated with buffer (negative control), 1 μg ml^−1 LPS (positive control), 100 μg ml^−1 amyloid endostatin^1,7, 260 μg ml^−1 Hb-AGE and 260 μg ml^−1 control Hb. After 1 h of stimulation, cells were put on ice. After washing RNA was isolated and quantified spectrophotometrically. Normalized amounts of RNA were used for 26 cycli of RT-PCR with human TNFα primer and 18 cycli of RT-PCR with ribosomal 18S primer for normalization purposes. DNA was analyzed on a 2% agarose gel.

tPA = target: T1, tPA (Homo sapiens, UniProt P00750); test: tPA ELISA with proteins pre-incubated with DXS500k; assay type: binding
T1 construct: purchased Boehringer-Ingelheim (Actilyse, Alteplase)

factor XII = target: T2, factor XII (Homo sapiens, UniProt P00748); test: Factor XII auto-activation assay with substrate S-2222; assay type: biochemical; details: purified factor XII, 100 μg ml^−1 FP13 K157G, 10 μg ml^−1 Aβ(1-40) E22Q, 10 μg ml^−1 Hb-AGE, DXS500k 1 μg ml^−1 as comparator
T2 construct: purchased Calbiochem, EMD Biosciences #233490
T2 sequence (P00748 20-615): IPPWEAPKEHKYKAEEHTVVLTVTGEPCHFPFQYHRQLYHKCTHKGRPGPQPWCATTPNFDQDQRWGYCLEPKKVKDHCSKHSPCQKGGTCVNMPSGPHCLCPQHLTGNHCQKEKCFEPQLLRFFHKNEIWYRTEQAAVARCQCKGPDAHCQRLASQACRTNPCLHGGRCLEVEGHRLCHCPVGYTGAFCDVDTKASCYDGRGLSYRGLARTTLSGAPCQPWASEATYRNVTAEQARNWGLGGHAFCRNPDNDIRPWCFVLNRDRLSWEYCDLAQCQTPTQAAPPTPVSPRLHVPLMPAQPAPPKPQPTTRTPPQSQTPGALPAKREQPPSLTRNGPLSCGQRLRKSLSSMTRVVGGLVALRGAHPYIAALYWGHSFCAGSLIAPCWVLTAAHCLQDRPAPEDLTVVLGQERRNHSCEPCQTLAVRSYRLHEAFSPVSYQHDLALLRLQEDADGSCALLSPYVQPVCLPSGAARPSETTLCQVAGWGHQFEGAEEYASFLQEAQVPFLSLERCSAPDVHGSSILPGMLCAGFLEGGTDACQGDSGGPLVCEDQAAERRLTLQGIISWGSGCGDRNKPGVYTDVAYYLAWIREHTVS
Description: Plasmin (Pls) activity was assayed as described^7. Peptides and proteins that were tested for their stimulatory ability were regularly used at 100 μg ml^−1. […] Chromogenic substrate S-2251 (Chromogenix, Instrumentation Laboratory SpA, Milano, Italy) was used to measure Pls activity. Conversion of zymogen factor XII (#233490, Calbiochem, EMD Biosciences, Inc., San Diego, Calif.) to proteolytically active factor XII (factor XIIa) was assayed by measurement of the conversion of chromogenic substrate Chromozym-PK (Roche Diagnostics, Almere, The Netherlands) by kallikrein. Chromozym-PK was used at a concentration of 0.3 mM. Factor XII, human plasma prekallikrein (#529583, Calbiochem) and human plasma cofactor high-molecular weight kininogen (#422686, Calbiochem) were used at concentrations of 1 μg ml^−1. […] Assays were performed using microtiter plates (Costar, Cambridge, Mass., USA). […] The conversion of Chromozym-PK was recorded kinetically at 37° C. for at least 60 minutes. […] With S-2222, activation of factor XII in plasma was measured, using 60% v/v plasma, diluted with substrate and H2O with or without potential cofactor. Furthermore, auto-activation of factor XII was measured by incubating 53 μg ml^−1 purified factor XII in 50 mM Tris-HCl buffer pH 7.5 with 1 mM EDTA and 0.001% v/v Triton-X100, with S-2222 and H2O with or without potential cofactor.

T1 sequence (P00750 36-562): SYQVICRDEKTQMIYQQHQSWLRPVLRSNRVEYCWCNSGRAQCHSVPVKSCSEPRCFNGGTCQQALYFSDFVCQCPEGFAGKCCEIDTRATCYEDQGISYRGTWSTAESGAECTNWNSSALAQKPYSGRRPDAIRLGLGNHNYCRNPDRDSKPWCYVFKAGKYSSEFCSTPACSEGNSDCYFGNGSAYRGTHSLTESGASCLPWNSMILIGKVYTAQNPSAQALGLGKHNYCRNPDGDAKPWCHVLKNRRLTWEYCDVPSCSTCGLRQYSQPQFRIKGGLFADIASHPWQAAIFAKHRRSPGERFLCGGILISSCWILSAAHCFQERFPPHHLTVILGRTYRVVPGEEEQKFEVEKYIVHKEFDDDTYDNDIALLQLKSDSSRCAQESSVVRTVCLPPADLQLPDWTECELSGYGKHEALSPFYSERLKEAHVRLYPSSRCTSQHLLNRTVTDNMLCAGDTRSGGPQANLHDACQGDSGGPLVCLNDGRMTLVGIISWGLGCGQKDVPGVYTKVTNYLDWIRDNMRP

Substance: Hb-AGE: human haemoglobin incubated 32 weeks at 37° C. with glucose-6-phosphate
- TNFα RNA expression when compared to LPS (U937 monocytes): approximately 30%

Substance: factor XII: zymogen factor XII (Calbiochem), here pre-incubated with DXS500k
- tPA binding to protein pre-incubated overnight with DXS500k (tPA): binds specifically

Substance: freshly dissolved FP13 K157G: FP13 K157G peptide freshly dissolved, not aggregated (KRLEVDIDIGIRS)
- potency to induce factor XII auto-activation (factor XII): did not or hardly auto-activate factor XII
